Experimental data taken from patent US20190150137A1.

Tests used:
[1] = biological target: GST-Fg g^1-17D16A (GST fusion of the Fg γ 395-411 sequence with D16A) (human); assay: solid-phase binding assay, wells coated with GST-γ1-17 D16A, anti-His detection, A405
[2] = biological target: GST-Fg γ^1-17 (GST fusion protein containing the native human Fg γ 395-411 sequence) (human); assay: ELISA-type assay, ligand coated, apparent Kd
[3] = biological target: ClfAD327C/K541C (ClfA(229-545)D327C/K541C, disulfide-stabilized closed conformation) (Staphylococcus aureus strain Newman) (UniProt Q2G015); assay: ITC, peptide titrated into ClfAD327C/K541C; panel assigned by the legend paragraph 25 (bovine Fg γ peptide has the lower affinity)

Substance | EC50 (read off the curve) [1] | Kd [2] | Kd [3]
ClfA229-545 (recombinant His-tagged N2N3 segment of Staphylococcus aureus clumping factor A) (from UniProt Q2G015 229-545) | 200 nM | 222 nM | –
ClfAD327C/K541C (ClfA(229-545)D327C/K541C, disulfide-stabilized closed conformation) (from UniProt Q2G015 229-545) | – | 20 nM | –
bovine Fg γ peptide (peptide representing the bovine Fg γ chain sequence) (from UniProt P12799 420-436) | – | – | 20900 nM
